{"source": "paper PMC11861921", "key": {"[1]": {"biological_target": "rat brain synaptosomes (sites that bind 125I-apamin)", "experiment": "radioligand binding; competition with 125I-apamin on rat brain synaptosomes"}, "[2]": {"biological_target": "rat brain synaptosomes (sites that bind 125I-charybdotoxin)", "experiment": "radioligand binding"}, "[3]": {"biological_target": "human Kv1.3 channel (human) (UniProt P22001)", "sequence (P22001 whole entry)": "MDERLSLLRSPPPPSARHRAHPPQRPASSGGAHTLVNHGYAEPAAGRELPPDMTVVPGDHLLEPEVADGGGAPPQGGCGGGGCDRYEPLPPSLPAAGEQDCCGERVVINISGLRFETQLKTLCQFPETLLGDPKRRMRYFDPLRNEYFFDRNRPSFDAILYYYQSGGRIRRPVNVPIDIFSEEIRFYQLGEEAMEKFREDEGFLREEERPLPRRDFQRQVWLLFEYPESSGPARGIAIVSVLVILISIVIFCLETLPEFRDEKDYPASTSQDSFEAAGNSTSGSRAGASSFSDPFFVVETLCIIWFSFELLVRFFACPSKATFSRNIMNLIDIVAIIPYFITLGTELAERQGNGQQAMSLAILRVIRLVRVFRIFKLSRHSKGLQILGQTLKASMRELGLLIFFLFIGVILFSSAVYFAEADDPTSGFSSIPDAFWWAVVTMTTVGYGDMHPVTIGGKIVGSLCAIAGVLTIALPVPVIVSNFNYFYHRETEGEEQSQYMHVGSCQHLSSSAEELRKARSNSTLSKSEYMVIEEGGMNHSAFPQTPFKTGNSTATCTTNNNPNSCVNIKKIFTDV"}}, "data": [{"substance": "MTX1 (peptide)", "values": [{"measurement": "IC50", "setting": "[1]", "value": 1.7, "unit": "nM"}, {"measurement": "IC50", "setting": "[2]", "value": 5, "unit": "nM"}]}, {"substance": "Tb11a (peptide)", "values": [{"measurement": "decrease in Kv1.3 maximum current, patch-clamp (voltage clamp, whole-cell configuration) on HEK293T cells", "setting": "[3]", "value": 50, "unit": "%"}]}]}
